Biological target: S. ruber SSB cdel 111 C-terminal deletion mutant lacking the C-terminal 111 residues of the wildtype SSB (Salinibacter ruber)
Test: size exclusion chromatography, 150 mM NaCl, self-association

## S. ruber SSB cdel 111 C-terminal deletion mutant lacking the C-terminal 111 residues of the wildtype SSB
  oligomer mass as multiple of the monomer mass (times monomer size): 3.8

Source: patent publication US20230092081A1
